# Laboratory results as given in the supplement of paper PMC10724198.
# How the values were obtained:
# Saccharomyces cerevisiae [1] = test: protein stability index of tFT-peptide fusion in deletion strain of DAS1 (PSI (0-1 scale)); higher = more stable (slower turnover)
# Experimental: (§1)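 MPS profiling in S. cerevisiae of two library types built from selected 12-aa C-degron peptides (IN1, IN2, LN1, LN3, VN2, R1-R5, W1-W3, Atg1 and Rpa12 C-termini): saturation mutagenesis libraries and C-terminal +1 capping libraries (13 aa). Each peptide is fused to the C-terminus of a sfGFP-mCherry timer, after a GGGS linker. Cells are FACS-sorted into 8 mCherry/sfGFP bins and sequenced. PSI runs from 0 (unstable) to 1 (stable), measured once in wild type and in the das1Δ or doa10Δ background.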
# Saccharomyces cerevisiae [2] = test: protein stability index of tFT-peptide fusion in wild type (PSI (0-1 scale)); higher = more stable (slower turnover); settings: genetic background: wild type
# Experimental: as §1
# 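Throughout, for protein stability index of tFT-peptide fusion in deletion strain of DAS1: PSI is a weighted mean of each variant's read distribution over the sorted stability bins, computed only for variants having over 10 reads in total.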
# 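Throughout, for protein stability index of tFT-peptide fusion in wild type: PSI derived as read-weighted mean over the 8 sorting bins, only variants exceeding 10 total reads kept, mCherry placed adjacent to the peptide and sfGFP distal.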
sequence,measurement,setting,value
ARWRVGLWRPAS,protein stability index,Saccharomyces cerevisiae [1],0.691
same,protein stability index,Saccharomyces cerevisiae [2],0.645
ARWRVGLWRSAS,protein stability index,Saccharomyces cerevisiae [1],0.693
same,protein stability index,Saccharomyces cerevisiae [2],0.102
ARWRVPLWRGAS,protein stability index,Saccharomyces cerevisiae [1],0.684
same,protein stability index,Saccharomyces cerevisiae [2],0.646
ARWTVGLWRGAS,protein stability index,Saccharomyces cerevisiae [1],0.692
same,protein stability index,Saccharomyces cerevisiae [2],0.495
ARYRVGLWRGAS,protein stability index,Saccharomyces cerevisiae [1],0.668
same,protein stability index,Saccharomyces cerevisiae [2],0.567
CLIQPLPVQFLN,protein stability index,Saccharomyces cerevisiae [1],0.548
same,protein stability index,Saccharomyces cerevisiae [2],0.103
CRSCGYKFRTNN,protein stability index,Saccharomyces cerevisiae [1],0.708
same,protein stability index,Saccharomyces cerevisiae [2],0.243
CSSCGYKFRTNN,protein stability index,Saccharomyces cerevisiae [1],0.695
same,protein stability index,Saccharomyces cerevisiae [2],0.216
CTGCGYKFRTNN,protein stability index,Saccharomyces cerevisiae [1],0.678
same,protein stability index,Saccharomyces cerevisiae [2],0.231
CTICGYKFRTNN,protein stability index,Saccharomyces cerevisiae [1],0.67
same,protein stability index,Saccharomyces cerevisiae [2],0.27
CTQCGYKFRTNN,protein stability index,Saccharomyces cerevisiae [1],0.697
same,protein stability index,Saccharomyces cerevisiae [2],0.25
CTRCGYKFRTNN,protein stability index,Saccharomyces cerevisiae [1],0.699
same,protein stability index,Saccharomyces cerevisiae [2],0.231
CTSCGNKFRTNN,protein stability index,Saccharomyces cerevisiae [1],0.695
same,protein stability index,Saccharomyces cerevisiae [2],0.52
CTSCGYDFRTNN,protein stability index,Saccharomyces cerevisiae [1],0.691
same,protein stability index,Saccharomyces cerevisiae [2],0.639
CTSCGYKFRTHN,protein stability index,Saccharomyces cerevisiae [1],0.717
same,protein stability index,Saccharomyces cerevisiae [2],0.325
CTSCGYKFRTMN,protein stability index,Saccharomyces cerevisiae [1],0.682
same,protein stability index,Saccharomyces cerevisiae [2],0.186
CTSCGYKFRTNK,protein stability index,Saccharomyces cerevisiae [1],0.704
same,protein stability index,Saccharomyces cerevisiae [2],0.689
CTSCGYKFRTNND,protein stability index,Saccharomyces cerevisiae [1],0.7
same,protein stability index,Saccharomyces cerevisiae [2],0.692
CTSCGYKFRTNNN,protein stability index,Saccharomyces cerevisiae [1],0.677
same,protein stability index,Saccharomyces cerevisiae [2],0.674
CTSCGYKFRTNT,protein stability index,Saccharomyces cerevisiae [1],0.693
same,protein stability index,Saccharomyces cerevisiae [2],0.579
CTSCGYKFTTNN,protein stability index,Saccharomyces cerevisiae [1],0.704
same,protein stability index,Saccharomyces cerevisiae [2],0.675
CTSCGYKIRTNN,protein stability index,Saccharomyces cerevisiae [1],0.704
same,protein stability index,Saccharomyces cerevisiae [2],0.261
CTSCGYQFRTNN,protein stability index,Saccharomyces cerevisiae [1],0.692
same,protein stability index,Saccharomyces cerevisiae [2],0.496
CTSCGYSFRTNN,protein stability index,Saccharomyces cerevisiae [1],0.695
same,protein stability index,Saccharomyces cerevisiae [2],0.391
CTSCGYWFRTNN,protein stability index,Saccharomyces cerevisiae [1],0.668
same,protein stability index,Saccharomyces cerevisiae [2],0.438
CTSCMYKFRTNN,protein stability index,Saccharomyces cerevisiae [1],0.689
same,protein stability index,Saccharomyces cerevisiae [2],0.207
CTSCRYKFRTNN,protein stability index,Saccharomyces cerevisiae [1],0.68
same,protein stability index,Saccharomyces cerevisiae [2],0.395
FNMRWTFRYWVN,protein stability index,Saccharomyces cerevisiae [1],0.518
same,protein stability index,Saccharomyces cerevisiae [2],0.0433
FRGAVGGWRLVG,protein stability index,Saccharomyces cerevisiae [1],0.685
same,protein stability index,Saccharomyces cerevisiae [2],0.192
FSARWTFRYWVN,protein stability index,Saccharomyces cerevisiae [1],0.553
same,protein stability index,Saccharomyces cerevisiae [2],0.0651
FSMMWTFRYWVN,protein stability index,Saccharomyces cerevisiae [1],0.354
same,protein stability index,Saccharomyces cerevisiae [2],0.0586
FSMRWTERYWVN,protein stability index,Saccharomyces cerevisiae [1],0.572
same,protein stability index,Saccharomyces cerevisiae [2],0.0612
FSMRWTFCYWVN,protein stability index,Saccharomyces cerevisiae [1],0.365
same,protein stability index,Saccharomyces cerevisiae [2],0.0818
FSMRWTFFYWVN,protein stability index,Saccharomyces cerevisiae [1],0.44
same,protein stability index,Saccharomyces cerevisiae [2],0.104
FSMRWTFIYWVN,protein stability index,Saccharomyces cerevisiae [1],0.263
same,protein stability index,Saccharomyces cerevisiae [2],0.0416
FSMRWTFPYWVN,protein stability index,Saccharomyces cerevisiae [1],0.601
same,protein stability index,Saccharomyces cerevisiae [2],0.079
FSMRWTFRCWVN,protein stability index,Saccharomyces cerevisiae [1],0.425
same,protein stability index,Saccharomyces cerevisiae [2],0.17
FSMRWTFRTWVN,protein stability index,Saccharomyces cerevisiae [1],0.475
same,protein stability index,Saccharomyces cerevisiae [2],0.181
FSMRWTFRYEVN,protein stability index,Saccharomyces cerevisiae [1],0.509
same,protein stability index,Saccharomyces cerevisiae [2],0.168
FSMRWTFRYQVN,protein stability index,Saccharomyces cerevisiae [1],0.539
same,protein stability index,Saccharomyces cerevisiae [2],0.0962
FSMRWTFRYWFN,protein stability index,Saccharomyces cerevisiae [1],0.503
same,protein stability index,Saccharomyces cerevisiae [2],0.318
FSMRWTFRYWGN,protein stability index,Saccharomyces cerevisiae [1],0.547
same,protein stability index,Saccharomyces cerevisiae [2],0.19
FSMRWTFRYWIN,protein stability index,Saccharomyces cerevisiae [1],0.469
same,protein stability index,Saccharomyces cerevisiae [2],0.0567
FSMRWTFRYWTN,protein stability index,Saccharomyces cerevisiae [1],0.644
same,protein stability index,Saccharomyces cerevisiae [2],0.0691
FSMRWTFRYWVNV,protein stability index,Saccharomyces cerevisiae [1],0.5
same,protein stability index,Saccharomyces cerevisiae [2],0.147
FSMRWTFRYWVP,protein stability index,Saccharomyces cerevisiae [1],0.541
same,protein stability index,Saccharomyces cerevisiae [2],0.541
FSMRWTFRYWVS,protein stability index,Saccharomyces cerevisiae [1],0.547
same,protein stability index,Saccharomyces cerevisiae [2],0.181
FSMRWTFRYWVW,protein stability index,Saccharomyces cerevisiae [1],0.377
same,protein stability index,Saccharomyces cerevisiae [2],0.195
FSMRWTFRYWWN,protein stability index,Saccharomyces cerevisiae [1],0.497
same,protein stability index,Saccharomyces cerevisiae [2],0.271
FSMRWTIRYWVN,protein stability index,Saccharomyces cerevisiae [1],0.38
same,protein stability index,Saccharomyces cerevisiae [2],0.0535
FSMRWTLRYWVN,protein stability index,Saccharomyces cerevisiae [1],0.438
same,protein stability index,Saccharomyces cerevisiae [2],0.0387
FSTRWTFRYWVN,protein stability index,Saccharomyces cerevisiae [1],0.62
same,protein stability index,Saccharomyces cerevisiae [2],0.0442
FSWRWTFRYWVN,protein stability index,Saccharomyces cerevisiae [1],0.756
same,protein stability index,Saccharomyces cerevisiae [2],0.0592
HRGAVGGWRLVG,protein stability index,Saccharomyces cerevisiae [1],0.665
same,protein stability index,Saccharomyces cerevisiae [2],0.172
HTSCGYKFRTNN,protein stability index,Saccharomyces cerevisiae [1],0.677
same,protein stability index,Saccharomyces cerevisiae [2],0.215
KCHKKGQKQKIN,protein stability index,Saccharomyces cerevisiae [1],0.592
same,protein stability index,Saccharomyces cerevisiae [2],0.342
KKDKKGQKQKIN,protein stability index,Saccharomyces cerevisiae [1],0.601
same,protein stability index,Saccharomyces cerevisiae [2],0.104
KKHHKGQKQKIN,protein stability index,Saccharomyces cerevisiae [1],0.588
same,protein stability index,Saccharomyces cerevisiae [2],0.0513
KKHKKFQKQKIN,protein stability index,Saccharomyces cerevisiae [1],0.599
same,protein stability index,Saccharomyces cerevisiae [2],0.0762
KKHKKGGKQKIN,protein stability index,Saccharomyces cerevisiae [1],0.653
same,protein stability index,Saccharomyces cerevisiae [2],0.169
KKHKKGKKQKIN,protein stability index,Saccharomyces cerevisiae [1],0.579
same,protein stability index,Saccharomyces cerevisiae [2],0.0795
KKHKKGQGQKIN,protein stability index,Saccharomyces cerevisiae [1],0.59
same,protein stability index,Saccharomyces cerevisiae [2],0.42
KKHKKGQKHKIN,protein stability index,Saccharomyces cerevisiae [1],0.588
same,protein stability index,Saccharomyces cerevisiae [2],0.228
KKHKKGQKQCIN,protein stability index,Saccharomyces cerevisiae [1],0.585
same,protein stability index,Saccharomyces cerevisiae [2],0.26
KKHKKGQKQKCN,protein stability index,Saccharomyces cerevisiae [1],0.584
same,protein stability index,Saccharomyces cerevisiae [2],0.312
KKHKKGQKQKIC,protein stability index,Saccharomyces cerevisiae [1],0.61
same,protein stability index,Saccharomyces cerevisiae [2],0.0636
KKHKKGQKQKID,protein stability index,Saccharomyces cerevisiae [1],0.611
same,protein stability index,Saccharomyces cerevisiae [2],0.547
KKHKKGQKQKINS,protein stability index,Saccharomyces cerevisiae [1],0.668
same,protein stability index,Saccharomyces cerevisiae [2],0.126
KKHKKGQKQKPN,protein stability index,Saccharomyces cerevisiae [1],0.722
same,protein stability index,Saccharomyces cerevisiae [2],0.617
KKHKKGQKQLIN,protein stability index,Saccharomyces cerevisiae [1],0.627
same,protein stability index,Saccharomyces cerevisiae [2],0.335
KKHKKGQKQTIN,protein stability index,Saccharomyces cerevisiae [1],0.571
same,protein stability index,Saccharomyces cerevisiae [2],0.362
KKHKKGQKWKIN,protein stability index,Saccharomyces cerevisiae [1],0.612
same,protein stability index,Saccharomyces cerevisiae [2],0.102
KKHKKGQSQKIN,protein stability index,Saccharomyces cerevisiae [1],0.676
same,protein stability index,Saccharomyces cerevisiae [2],0.204
KKHKKGTKQKIN,protein stability index,Saccharomyces cerevisiae [1],0.608
same,protein stability index,Saccharomyces cerevisiae [2],0.0759
KKHKKGWKQKIN,protein stability index,Saccharomyces cerevisiae [1],0.682
same,protein stability index,Saccharomyces cerevisiae [2],0.0739
KKHKKGYKQKIN,protein stability index,Saccharomyces cerevisiae [1],0.607
same,protein stability index,Saccharomyces cerevisiae [2],0.113
KKHKKPQKQKIN,protein stability index,Saccharomyces cerevisiae [1],0.659
same,protein stability index,Saccharomyces cerevisiae [2],0.0387
KKHKMGQKQKIN,protein stability index,Saccharomyces cerevisiae [1],0.623
same,protein stability index,Saccharomyces cerevisiae [2],0.0496
KKKKKGQKQKIN,protein stability index,Saccharomyces cerevisiae [1],0.567
same,protein stability index,Saccharomyces cerevisiae [2],0.164
KKMKKGQKQKIN,protein stability index,Saccharomyces cerevisiae [1],0.758
same,protein stability index,Saccharomyces cerevisiae [2],0.0965
KMHKKGQKQKIN,protein stability index,Saccharomyces cerevisiae [1],0.857
same,protein stability index,Saccharomyces cerevisiae [2],0.1
LHILRQKMNHQN,protein stability index,Saccharomyces cerevisiae [1],0.662
same,protein stability index,Saccharomyces cerevisiae [2],0.105
LKILIQKMNHQN,protein stability index,Saccharomyces cerevisiae [1],0.695
same,protein stability index,Saccharomyces cerevisiae [2],0.217
LKILRGKMNHQN,protein stability index,Saccharomyces cerevisiae [1],0.674
same,protein stability index,Saccharomyces cerevisiae [2],0.297
LKILRQKMCHQN,protein stability index,Saccharomyces cerevisiae [1],0.68
same,protein stability index,Saccharomyces cerevisiae [2],0.217
LKILRQKMGHQN,protein stability index,Saccharomyces cerevisiae [1],0.672
same,protein stability index,Saccharomyces cerevisiae [2],0.541
LKILRQKMNGQN,protein stability index,Saccharomyces cerevisiae [1],0.659
same,protein stability index,Saccharomyces cerevisiae [2],0.353
LKILRQKMNHPN,protein stability index,Saccharomyces cerevisiae [1],0.688
same,protein stability index,Saccharomyces cerevisiae [2],0.672
LKILRQKMNHQI,protein stability index,Saccharomyces cerevisiae [1],0.67
same,protein stability index,Saccharomyces cerevisiae [2],0.179
